# Experimental data reported in publication PMC4434323.
# Tests used:
# [1] = system: T1, syd-9 (ZK867.1) (Caenorhabditis elegans)
# T1 sequence: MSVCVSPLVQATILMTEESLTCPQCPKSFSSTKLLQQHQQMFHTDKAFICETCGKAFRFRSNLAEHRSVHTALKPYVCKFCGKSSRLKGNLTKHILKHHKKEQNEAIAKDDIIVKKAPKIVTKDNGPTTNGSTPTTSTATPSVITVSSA
# [2] = molecular target: T2, lsl-1 (F52F12.4) (Caenorhabditis elegans) (UniProt O02273)
# T2 sequence: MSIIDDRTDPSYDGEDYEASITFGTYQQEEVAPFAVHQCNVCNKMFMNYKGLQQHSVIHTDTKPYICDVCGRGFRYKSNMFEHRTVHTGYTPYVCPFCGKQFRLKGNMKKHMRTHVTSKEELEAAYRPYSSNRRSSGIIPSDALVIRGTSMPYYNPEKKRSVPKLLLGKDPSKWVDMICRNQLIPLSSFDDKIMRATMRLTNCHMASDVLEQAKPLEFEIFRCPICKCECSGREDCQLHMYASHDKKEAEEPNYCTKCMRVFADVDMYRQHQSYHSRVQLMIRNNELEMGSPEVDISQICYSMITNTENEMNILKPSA
# [3] = molecular target: klf-3 (F54H5.4) (Caenorhabditis elegans) (UniProt Q65ZG6)
# Sequence of klf-3 (F54H5.4) (Caenorhabditis elegans) (Q65ZG6 180-315): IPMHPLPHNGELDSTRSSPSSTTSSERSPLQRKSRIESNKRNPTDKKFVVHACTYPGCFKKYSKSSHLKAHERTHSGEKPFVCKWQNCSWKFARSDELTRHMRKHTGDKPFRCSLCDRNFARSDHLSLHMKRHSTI
# [4] = molecular target: T3, F52B5.7 (F52B5.7) (Caenorhabditis elegans) (UniProt Q7YWZ7)
# T3 sequence: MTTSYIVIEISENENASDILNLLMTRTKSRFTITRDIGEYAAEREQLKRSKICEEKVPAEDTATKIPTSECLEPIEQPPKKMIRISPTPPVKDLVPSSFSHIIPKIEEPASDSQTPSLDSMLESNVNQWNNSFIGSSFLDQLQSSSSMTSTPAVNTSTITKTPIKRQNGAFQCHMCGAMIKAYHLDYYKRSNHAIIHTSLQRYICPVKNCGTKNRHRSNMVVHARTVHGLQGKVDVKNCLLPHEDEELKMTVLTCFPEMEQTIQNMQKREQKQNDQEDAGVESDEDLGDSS
# [5] = molecular target: T4, ham-2 (C07A12.1) (Caenorhabditis elegans) (UniProt H2KYH4)
# T4 sequence: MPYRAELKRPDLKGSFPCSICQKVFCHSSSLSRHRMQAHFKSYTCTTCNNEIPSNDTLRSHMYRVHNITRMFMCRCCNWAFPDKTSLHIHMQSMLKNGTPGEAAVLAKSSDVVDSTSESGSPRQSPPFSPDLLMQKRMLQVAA
# [6] = molecular target: T5, lsy-27 (F47H4.1) (Caenorhabditis elegans) (UniProt O45526)
# T5 sequence: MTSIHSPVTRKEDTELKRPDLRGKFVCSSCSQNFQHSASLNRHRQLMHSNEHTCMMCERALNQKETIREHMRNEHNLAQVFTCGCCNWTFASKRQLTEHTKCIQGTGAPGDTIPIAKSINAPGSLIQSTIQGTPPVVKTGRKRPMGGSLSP
# [7] = molecular target: T6, ztf-29 (Y66D12A.12) (Caenorhabditis elegans) (UniProt Q95Q03)
# T6 sequence: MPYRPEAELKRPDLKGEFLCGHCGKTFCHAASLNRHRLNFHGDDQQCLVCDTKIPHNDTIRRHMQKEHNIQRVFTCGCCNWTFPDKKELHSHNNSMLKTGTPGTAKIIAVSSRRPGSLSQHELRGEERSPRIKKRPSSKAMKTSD
# [8] = system: T7, ztf-14 (M163.2) (Caenorhabditis elegans)
# T7 sequence: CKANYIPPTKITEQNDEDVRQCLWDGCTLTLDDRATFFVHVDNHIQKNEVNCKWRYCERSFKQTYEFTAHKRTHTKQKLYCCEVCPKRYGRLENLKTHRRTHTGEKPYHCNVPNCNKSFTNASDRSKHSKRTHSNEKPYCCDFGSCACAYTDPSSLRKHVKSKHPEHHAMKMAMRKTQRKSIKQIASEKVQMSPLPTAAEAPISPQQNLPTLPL
sequence,measurement,setting,value
GTACGGTA (double strand) [8-mer GTACGGTA],binding signal (PBM E-score (-0.5 to 0.5)),[1],0.492
same,binding signal (PBM E-score (-0.5 to 0.5)),[2],0.494
TACGCCCA (double strand) [8-mer TACGCCCA],binding signal (PBM E-score (-0.5 to 0.5)),[3],0.486
TACTGTAA (double strand) [8-mer TACTGTAA],binding signal (PBM E-score (-0.5 to 0.5)),[1],0.494
same,binding signal (PBM E-score (-0.5 to 0.5)),[2],0.49
GTACAGTA (double strand) [8-mer GTACAGTA],binding signal (PBM E-score (-0.5 to 0.5)),[1],0.495
same,binding signal (PBM E-score (-0.5 to 0.5)),[2],0.495
ATGGGTAC (double strand) [8-mer ATGGGTAC],binding signal (PBM E-score (-0.5 to 0.5)),[4],0.488
AACGCCCA (double strand) [8-mer AACGCCCA],binding signal (PBM E-score (-0.5 to 0.5)),[3],0.483
AAGCTTAA (double strand) [8-mer AAGCTTAA],binding signal (PBM E-score (-0.5 to 0.5)),[5],0.493
same,binding signal (PBM E-score (-0.5 to 0.5)),[6],0.493
same,binding signal (PBM E-score (-0.5 to 0.5)),[7],0.494
ACCCCATA (double strand) [8-mer ACCCCATA],binding signal (PBM E-score (-0.5 to 0.5)),[4],0.496
ACCACCCT (double strand) [8-mer ACCACCCT],binding signal (PBM E-score (-0.5 to 0.5)),[8],0.463
CCCCATAA (double strand) [8-mer CCCCATAA],binding signal (PBM E-score (-0.5 to 0.5)),[4],0.495
GGCCACCC (double strand) [8-mer GGCCACCC],binding signal (PBM E-score (-0.5 to 0.5)),[8],0.494
AGGGCGTA (double strand) [8-mer AGGGCGTA],binding signal (PBM E-score (-0.5 to 0.5)),[3],0.484
GACCTCCC (double strand) [8-mer GACCTCCC],binding signal (PBM E-score (-0.5 to 0.5)),[8],0.479
CACGCCCA (double strand) [8-mer CACGCCCA],binding signal (PBM E-score (-0.5 to 0.5)),[3],0.49
AGGCCACC (double strand) [8-mer AGGCCACC],binding signal (PBM E-score (-0.5 to 0.5)),[8],0.453
ACCCATGG (double strand) [8-mer ACCCATGG],binding signal (PBM E-score (-0.5 to 0.5)),[4],0.485
TACGGTAA (double strand) [8-mer TACGGTAA],binding signal (PBM E-score (-0.5 to 0.5)),[2],0.492
CCATGGGG (double strand) [8-mer CCATGGGG],binding signal (PBM E-score (-0.5 to 0.5)),[4],0.482
ATACGCCC (double strand) [8-mer ATACGCCC],binding signal (PBM E-score (-0.5 to 0.5)),[3],0.48
CCCCCATA (double strand) [8-mer CCCCCATA],binding signal (PBM E-score (-0.5 to 0.5)),[4],0.485
GACCACCA (double strand) [8-mer GACCACCA],binding signal (PBM E-score (-0.5 to 0.5)),[8],0.454
GGACCACC (double strand) [8-mer GGACCACC],binding signal (PBM E-score (-0.5 to 0.5)),[8],0.495
AGACCACC (double strand) [8-mer AGACCACC],binding signal (PBM E-score (-0.5 to 0.5)),[8],0.494
GAAGCTTA (double strand) [8-mer GAAGCTTA],binding signal (PBM E-score (-0.5 to 0.5)),[5],0.482
same,binding signal (PBM E-score (-0.5 to 0.5)),[6],0.493
same,binding signal (PBM E-score (-0.5 to 0.5)),[7],0.485
CTACTGTA (double strand) [8-mer CTACTGTA],binding signal (PBM E-score (-0.5 to 0.5)),[2],0.491
GACCACAC (double strand) [8-mer GACCACAC],binding signal (PBM E-score (-0.5 to 0.5)),[8],0.488
AAGCTTTA (double strand) [8-mer AAGCTTTA],binding signal (PBM E-score (-0.5 to 0.5)),[5],0.482
same,binding signal (PBM E-score (-0.5 to 0.5)),[6],0.49
same,binding signal (PBM E-score (-0.5 to 0.5)),[7],0.494
GACCCCCC (double strand) [8-mer GACCCCCC],binding signal (PBM E-score (-0.5 to 0.5)),[8],0.478
ATGGGTGG (double strand) [8-mer ATGGGTGG],binding signal (PBM E-score (-0.5 to 0.5)),[8],0.452
CTACCGTA (double strand) [8-mer CTACCGTA],binding signal (PBM E-score (-0.5 to 0.5)),[2],0.498
CAACGCCC (double strand) [8-mer CAACGCCC],binding signal (PBM E-score (-0.5 to 0.5)),[3],0.482
ACGCCCAT (double strand) [8-mer ACGCCCAT],binding signal (PBM E-score (-0.5 to 0.5)),[3],0.49
